These results are taken from article PMC4694755 (Molecular Biology of the Cell, 2016).

In the assay the target is Mouse importin β (mouse, UniProt P70168 1-876). In words: SPR.
Mouse importin β, sequence (P70168 whole entry): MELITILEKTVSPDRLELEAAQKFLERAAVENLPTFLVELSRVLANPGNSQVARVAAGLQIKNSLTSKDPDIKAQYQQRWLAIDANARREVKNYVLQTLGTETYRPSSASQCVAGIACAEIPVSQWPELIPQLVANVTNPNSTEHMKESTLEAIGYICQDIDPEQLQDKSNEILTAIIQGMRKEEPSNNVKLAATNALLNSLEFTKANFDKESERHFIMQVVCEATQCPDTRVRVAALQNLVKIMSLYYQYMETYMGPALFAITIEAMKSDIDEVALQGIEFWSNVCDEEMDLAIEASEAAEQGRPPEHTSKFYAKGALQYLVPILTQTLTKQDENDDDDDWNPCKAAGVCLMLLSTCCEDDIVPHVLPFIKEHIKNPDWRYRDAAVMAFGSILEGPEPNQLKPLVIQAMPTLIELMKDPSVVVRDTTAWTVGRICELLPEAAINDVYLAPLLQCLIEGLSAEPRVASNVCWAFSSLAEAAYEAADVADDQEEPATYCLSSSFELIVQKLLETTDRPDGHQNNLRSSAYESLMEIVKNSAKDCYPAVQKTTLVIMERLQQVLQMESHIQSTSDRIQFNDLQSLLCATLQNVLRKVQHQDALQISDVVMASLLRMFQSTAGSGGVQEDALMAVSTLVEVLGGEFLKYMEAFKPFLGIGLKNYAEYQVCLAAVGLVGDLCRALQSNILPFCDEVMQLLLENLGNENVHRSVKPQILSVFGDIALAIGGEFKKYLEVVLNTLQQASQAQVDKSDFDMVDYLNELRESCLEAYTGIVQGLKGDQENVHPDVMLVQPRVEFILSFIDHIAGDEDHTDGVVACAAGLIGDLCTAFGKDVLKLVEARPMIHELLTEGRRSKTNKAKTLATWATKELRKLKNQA

B1: importin β–binding domain of rat importin α (IBB, amino acids 1–66) (domain or fragment)
chain: not shown
One may read the koff as the rate constant with which the complex falls apart. The low end stands for a long-lived complex, the high end for a short-lived complex. For orientation: kon means a measure of how fast the partners come together. A lower kon goes with slow association. On to B1, for which the koff was determined as 0.00132 s⁻¹ and the kon stood at 99400 M⁻¹ s⁻¹.
